This assay concerns the target T1, nSR100 (Mus musculus, UniProt Q8BKA3).
T1 construct: host or cells: mouse N2A cells
T1 sequence (Q8BKA3 1-608): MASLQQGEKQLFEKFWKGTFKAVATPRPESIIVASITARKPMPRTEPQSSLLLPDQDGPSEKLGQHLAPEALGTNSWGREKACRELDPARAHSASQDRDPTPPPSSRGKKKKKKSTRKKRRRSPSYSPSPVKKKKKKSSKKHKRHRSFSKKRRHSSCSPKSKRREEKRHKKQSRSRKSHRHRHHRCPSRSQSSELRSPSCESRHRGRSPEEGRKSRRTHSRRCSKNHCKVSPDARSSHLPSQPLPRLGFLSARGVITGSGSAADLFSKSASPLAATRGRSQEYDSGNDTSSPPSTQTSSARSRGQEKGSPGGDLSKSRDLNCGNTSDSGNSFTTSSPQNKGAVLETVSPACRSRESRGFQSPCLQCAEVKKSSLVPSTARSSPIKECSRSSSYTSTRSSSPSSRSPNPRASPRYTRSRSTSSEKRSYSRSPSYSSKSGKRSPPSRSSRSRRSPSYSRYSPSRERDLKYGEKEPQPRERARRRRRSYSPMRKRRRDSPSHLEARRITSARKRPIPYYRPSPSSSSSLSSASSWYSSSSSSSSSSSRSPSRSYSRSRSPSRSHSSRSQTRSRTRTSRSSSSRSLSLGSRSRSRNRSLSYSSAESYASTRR
The assay is described as follows: AP-MS nSR100 interaction partners from mouse N2A cells (Table 5). It is filed as binding. As to conditions: for AvgP (average of the SAINT scores) / MaxP (maximal SAINT score): bait Srrm4; for FoldChange between the prey Avg spectra of the bait and control purifications: bait Srrm4, 0.1 added to prevent division by 0; for AvgSpec (average number of spectra per replicate): bait Srrm4, 2 replicates; for Spectra (number of spectra for the prey in the purification of the bait): AP-MS; for SpecSum: bait Srrm4, sum of spectra over 2 replicates.

Setting [1] is: bait Srrm4, biological replicate 1 (first number of the cell).
[2] abbreviates: bait Srrm4, biological replicate 2 (second number of the cell).

Text: By applying affinity purification coupled to mass-spectrometry (AP-MS), several interaction nSR100 partner proteins were detected that provide insight into mechanisms of post-translational regulation of nSR100 levels.

B1: Gsk3b (protein, UniProt Q9WV60 1-420, looked up)
Glycogen synthase kinase-3 …: MSGRPRTTSFAESCKPVQQPSAFGSMKVSRDKDGSKVTTVVATPGQGPDRPQEVSYTDTKVIGNGSFGVVYQAKLCDSGELVAIKKVLQDKRFKNRELQIMRKLDHCNIVRLRYFFYSSGEKKDEVYLNLVLDYVPETVYRVARHYSRAKQTLPVIYVKLYMYQLFRSLAYIHSFGICHRDIKPQNLLLDPDTAVLKLCDFGSAKQLVRGEPNVSYICSRYYRAPELIFGATDYTSSIDVWSAGCVLAELLLGQPIFPGDSGVDQLVEIIKVLGTPTREQIREMNPNYTEFKFPQIKAHPWTKVFRPRTPPEAIALCSRLLEYTPTARLTPLEACAHSFFDELRDPNVKLPNGRDTPALFNFTTQELSSNPPLATILIPPHARIQAAASPPANATAASDTNAGDRGQTNNAASASASNST
For B1, the “AvgP (average of the SAINT scores)” value was 1; the “MaxP (maximal SAINT score)” value came out at 1; the “FoldChange between the prey Avg spectra of the bait and control purifications” value (from here on “FoldChange between the prey Avg spectra”) was determined as 65; the “AvgSpec (average number of spectra per replicate)” value came out at 6.5. The same molecule gave a SpecSum of 13. In addition, the “Spectra (number of spectra for the prey in the purification of the bait)” value under setting [1] was found to be 6. Under setting [2], the “Spectra (number of spectra for the prey in the purification of the bait)” value is on record as 7.

B2: Cdc37 (protein, UniProt Q61081 1-379, looked up)
Hsp90 co-chaperone Cdc37: MVDYSVWDHIEVSDDEDETHPNIDTASLFRWRHQARVERMEQFQKEKEELDRGCRECKRKVAECQRKLKELEVAESDGQVELERLRAEAQQLRKEERSWEQKLEDMRKKEKNMPWNVDTLSKDGFSKSMVNTKPEKAEEDSEEAREQKHKTFVEKYEKQIKHFGMLHRWDDSQKYLSDNVHLVCEETANYLVIWCIDLEVEEKCALMEQVAHQTMVMQFILELAKSLKVDPRACFRQFFTKIKTADHQYMEGFKYELEAFKERVRGRAKLRIEKAMKEYEEEERKKRLGPGGLDPVEVYESLPEELQKCFDVKDVQMLQDAISKMDPTDAKYHMQRCIDSGLWVPNSKSGEAKEGEEAGPGDPLLEAVPKAGNEKDVSA
For the molecule B2, the “AvgP (average of the SAINT scores)” value was 1; the “MaxP (maximal SAINT score)” value came out at 1; the “FoldChange between the prey Avg spectra” value was determined as 4.61; the “AvgSpec (average number of spectra per replicate)” value amounted to 53. The molecule also registered a SpecSum of 106. Moreover, under setting [1], the “Spectra (number of spectra for the prey in the purification of the bait)” value worked out at 58. Moreover, the “Spectra (number of spectra for the prey in the purification of the bait)” value under setting [2] came out at 48.

B3: Acin1 (protein, UniProt Q9JIX8 1-1338, looked up)
Apoptotic chromatin …: MWGRKRPNSSGETRGILSGNRGVDYGSGRGQSGPFEGRWRKLPKMPEAVGTDPSTSRKMAELEEVTLDGKPLQALRVTDLKAALEQRGLAKSGQKSALVKRLKGALMLENLQKHSTPHAAFQPNSQIGEEMSQNSFIKQYLEKQQELLRQRLEREAREAAELEEASAESEDEMTHPEGVASLLPPDFQSSLNRPELELSTHSPRKSSSFSEEKGESDDEKPRKGERRSSRVRQAKSKLPEYSQTAEEEEDQETPSRNLRVRADRNLKIEEEEEEEEEEEDDDDEEEEEVDEAQKSREAEAPTLKQFEDEEGEERTRAKPEKVVDEKPLNIRSQEKGELEKGGRVTRSQEEARRSHLARQQQEKETQIVSLPQEENEVKSSQSLEEKSQSPSPPPLPEDLEKAPVVLQPEQIVSEEETPPPLLTKEASSPPTHIQLQEEMEPVEGPAPPVLIQLSPPNTDAGAREPLASPHPAQLLRSLSPLSGTTDTKAESPAGRVSDESVLPLAQKSSLPECSTQKGVESEREKSAPLPLTVEEFAPAKGITEEPMKKQSLEQKEGRRASHALFPEHSGKQSADSSSSRSSSPSSSSSPSRSPSPDSVASRPQSSPGSKQRDGAQARVHANPHERPKMGSRSTSESRSRSRSRSRSASSSSRKSLSPGVSRDSNTSYTETKDPSCGQEAAAPSGPQLQVLEPKEKAPTFSASVRGRHLSHPEPEQQHVIQRLQPEQGSPKKCEAEEAEPPAATQPQTSETQISHLLESERTHHTVEEKEEVTMDTSENRPENEVPEPPLPVADQVSNDERPEGGAEEEEKKESSMPKSFKRKISVVSATKGVQAGNSDTEGGQPGRKRRWGASTAATQKKPSISITTESLKSLIPDIKPLAGQEAVVDLHADDSRISEDETERNGDDGTHDKGLKICRTVTQVVPAEGQENGQREEEEEKEPEAELPAPPQVSVEVALPPPVEHEVKKVTLGDTLTRRSISQQKSGVSITIDDPVRTAQVPSPPRGKISNIVHISNLVRPFTLGQLKELLGRTGTLVEEAFWIDKIKSHCFVTYSTVEEAVATRTALHGVKWPQSNPKFLCADYAEQDELDYHRGLLVDRPSETKAEEQGAPRPLHPPPPPPVQPPPHPRAEQREQERAVREQWAEREREMERRERTRSEREWDRDKVREGPRSRSRSRDRRRKERAKSKEKKSEKKEKAQEEPPAKLLDDLFRKTKAAPCIYWLPLTESQIVQKEAEQAERAKEREKRRKEREEEEQKEREKEAERERNRQLEREKRREHSRERERDRERERDRGDRERERERDRDRGRERDRRDTKRHSRSRSRSTPVRDRGGRR
For B3, the “AvgP (average of the SAINT scores)” value is 1; the “MaxP (maximal SAINT score)” value was 1; the “FoldChange between the prey Avg spectra” value was 250; the “AvgSpec (average number of spectra per replicate)” value came out at 25. This molecule also came in with a SpecSum of 50. Moreover, the “Spectra (number of spectra for the prey in the purification of the bait)” value under setting [1] was 23. The “Spectra (number of spectra for the prey in the purification of the bait)” value under setting [2] is given as 27.

B4: Api5 (protein, UniProt O35841 1-504, looked up)
Apoptosis inhibitor 5: MPTVEELYRNYGILADATEQVGQHKDAYQVILDGVKGGTKEKRLAAQFIPKFFKHFPELADSAINAQLDLCEDEDVSIRRQAIKELPQFATGENLPRVADILTQLLQTDDSAEFNLVNNALLSIFKMDAKGTLGGLFSQILQGEDIVRERAIKFLSTKLKTLPDEVLTKEVEELILTESKKVLEDVTGEEFVLFMKILSGLKSLQTVSGRQQLVELVAEQADLEQAFSPSDPDCVDRLLQCTRQAVPLFSKNVHSTRFVTYFCEQVLPNLSTLTTPVEGLDIQLEVLKLLAEMSSFCGDMEKLETNLRKLFDKLLEYMPLPPEEAENGENAGNEEPKLQFSYVECLLYSFHQLGRKLPDFLTAKLNAEKLKDFKIRLQYFARGLQVYIRQLRLALQGKTGEALKTEENKIKVVALKITNNINVLIKDLFHIPPSYKSTVTLSWKPVQKVEIGQKRTSEDTSSGSPPKKSPGGPKRDARQIYNPPSGKYSSNLSNFNYERSLQGK
Turning to B4, the “AvgP (average of the SAINT scores)” value was determined as 1; the “MaxP (maximal SAINT score)” value is 1; the “FoldChange between the prey Avg spectra” value is listed as 18; the “AvgSpec (average number of spectra per replicate)” value is recorded as 9. The SpecSum is given as 18. For the same molecule, the “Spectra (number of spectra for the prey in the purification of the bait)” value under setting [1] came out at 8. For the same molecule, the “Spectra (number of spectra for the prey in the purification of the bait)” value under setting [2] amounted to 10.

B5: Snrpa (protein, UniProt Q62189 1-287, looked up)
U1 small nuclear …: MATIATMPVPETRANHTIYINNLNEKIKKDELKKSLYAIFSQFGQILDILVSRIMKMRGQAFVIFKEVTSATNALRSMQGFPFYDKPMRIQYAKTDSDIIAKMKGTYVERDRKREKRKPKSQETPAAKKAVQGGAAAPVVGAVQPVPGMPPMPQAPRIMHHMPGQPPYMPPPGMIPPPGLAPGQIPPGAMPPQQLMPGQMPPAQPLSENPPNHILFLTNLPEETNELMLSMLFNQFPGFKEVRLVPGRHDIAFVEFDNEVQAGAARDALQGFKITQNNAMKISFAKK
Turning to B5, the “AvgP (average of the SAINT scores)” value is 1; the “MaxP (maximal SAINT score)” value amounted to 1; the “FoldChange between the prey Avg spectra” value is 7.09; the “AvgSpec (average number of spectra per replicate)” value is recorded as 39. This molecule showed a SpecSum of 78. The “Spectra (number of spectra for the prey in the purification of the bait)” value under setting [1] was 38. Also, under setting [2], the “Spectra (number of spectra for the prey in the purification of the bait)” value is 40.

B6: P00761 (protein, UniProt P00761 1-231, looked up)
chain: FPTDDDDKIVGGYTCAANSIPYQVSLNSGSHFCGGSLINSQWVVSAAHCYKSRIQVRLGEHNIDVLEGNEQFINAAKIITHPNFNGNTLDNDIMLIKLSSPATLNSRVATVSLPRSCAAAGTECLISGWGNTKSSGSSYPSLLQCLKAPVLSDSSCKSSYPGQITGNMICVGFLEGGKDSCQGDSGGPVVCNGQLQGIVSWGYGCAQKNKPGVYTKVCNYVNWIQQTIAAN
modifications: full-length
With B6, the “AvgP (average of the SAINT scores)” value is 1; the “MaxP (maximal SAINT score)” value was determined as 1; the “FoldChange between the prey Avg spectra” value came to 150; the “AvgSpec (average number of spectra per replicate)” value turned out to be 15. The SpecSum was found to be 30. Further, the “Spectra (number of spectra for the prey in the purification of the bait)” value under setting [1] is 15|15. Further, the “Spectra (number of spectra for the prey in the purification of the bait)” value under setting [2] is 15|15.

B7: Csnk2a2 (protein, UniProt O54833 1-350, looked up)
Casein kinase II subunit …: MPGPAAGSRARVYAEVNSLRSREYWDYEAHVPSWGNQDDYQLVRKLGRGKYSEVFEAINITNNERVVVKILKPVKKKKIKREVKILENLRGGTNIIKLIDTVKDPVSKTPALVFEYINNTDFKQLYQILTDFDIRFYMYELLKALDYCHSKGIMHRDVKPHNVMIDHQQKKLRLIDWGLAEFYHPAQEYNVRVASRYFKGPELLVDYQMYDYSLDMWSLGCMLASMIFRKEPFFHGQDNYDQLVRIAKVLGTDELYGYLKKYHIDLDPHFNDILGQHSRKRWENFIHSENRHLVSPEALDLLDKLLRYDHQQRLTAKEAMEHPYFYPVVKEQSQPCAENTVLSSGLTAAR
On to B7, for which the “AvgP (average of the SAINT scores)” value worked out at 1; the “MaxP (maximal SAINT score)” value is recorded as 1; the “FoldChange between the prey Avg spectra” value is 10; the “AvgSpec (average number of spectra per replicate)” value came to 20. This molecule gave a SpecSum of 40. Besides, the “Spectra (number of spectra for the prey in the purification of the bait)” value under setting [1] was found to be 16. For the same molecule, under setting [2], the “Spectra (number of spectra for the prey in the purification of the bait)” value was 24.
